Blank lines part the entries; values can stand above or below the binder they belong to.
Assays:
[1] = target: T1, human fatty acid binding protein 4 (Homo sapiens, UniProt P15090); experiment: ITC; MicroCal PEAQ ITC, 25 °C, PBS, one binding site model; 50 µM F4_B6 in cell with 550 µM hFABP4 in syringe; settings: both partners purified
T1 construct: The methods describe only the plasmid His-SUMO-hFABP4-(GGGGS)4-SBP; also called hFABP4; FABP4; source: E. coli BL21 (DE3), purified (Ni-NTA, SEC); not shown: His, N-terminal, cleaved; SUMO, N-terminal, cleaved

[2] = target: T1, human fatty acid binding protein 4; experiment: pull-down; His-tagged nanobody captured from E. coli supernatant on Ni-NTA agarose and washed; 100 µL target protein solution (approximately 0.2 mg/mL) added; washes with PBS (10 mM imidazole in the 3rd); elution with 200 mM imidazole; SDS-PAGE; settings: both partners purified

T1 sequence (P15090 whole entry): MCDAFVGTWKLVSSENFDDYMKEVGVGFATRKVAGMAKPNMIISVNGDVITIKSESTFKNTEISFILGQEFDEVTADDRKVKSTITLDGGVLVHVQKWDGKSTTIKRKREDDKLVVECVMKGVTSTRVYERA

- Kd [1]: ~295 nM
B1: F4_B6 (VHH)
VHH: QVQLVESGGGLVQAGGSLRLSCAASGVDMHNFEMGWYRQAPGKEREFVAAIDDVQPLTYYADSVKGRFTISRDNAKNTVYLQMNSLKPEDTAVYYCAAVKGDFWSESNYWGQGTQVTVSS
notes: source: E. coli BL21; supernatant of lysed cells (ELISA; captured on Ni-NTA for the pull-down); purified (Ni-NTA, SEC) for SEC and ITC

- binding result [2]: binds
B2: F4_C9 (VHH)
VHH: QVQLVESGGGLVQAGGSLRLSCAASGPPFSFVFMGWYRQAPGKEREFVAAIFDFTDETYYADSVKGRFTISRDNAKNTVYLHMNSLKPEDTAVYYCAAARGLNYWNNVYWGQGTQVTVSS
notes: source: E. coli BL21; supernatant of lysed cells (ELISA; captured on Ni-NTA for the pull-down)

Reference: article PMC12101283, “Validation and Optimization of PURE Ribosome Display for Screening Synthetic Nanobody Libraries” (Antibodies, 2025)
